Experiment: label from the status in PepcDB records
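Also: failed if final PepcDB status was selected cloned or expressed and not failed if soluble or beyond.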

Sequence	protein production
MTFGQSIGTCFAKYITFSGRASRPEYWYFFLFLLLGSIAATMLDALLFDAVTTTVETSDTSTSARIENTGPIAPIFSLAVFLPHLAVAFRRMHDTGRSGIYAILPFLLMLCAVLVLVFGVGIASSFAAGGSLDLLFTRATLLLLIPTLAVLFISPLLVLWWLTRPSQPGTNQYGPNPVRAVAS	failed
MFFSKLFRKDAASCLEKGEKLLAAGRFAEARLSLEDALERLDAHSPEGATTAAVIREKMVVAGNRLAEMNLQEAEHCLKSGEFAKAEEHLNLTLDLADDVTIRDKAVKSFALLEKQIPHVHHHEKKGGCGGCGGSTSQHSENIELEDDGLNDMDRFELLVRPLPGDLPERYADLGEEFAGGYLAAHGGDQMTAEKVFERLLASGESDILLYELAILSHQGGDGRRCETLLRRALALNDTNPLCNLSLVQLLTENGRFTEAVPLLERMVERDILPDQAGMFLGEIYRVQGESDRAIAQFSQLLSTPLKREAAERLVGLLETTGRSQEAALVAKQYLKGCC	failed
MDRRDYYVEYYEVLDRVLSDYVNQLREKREHWLKMGGHDVGVPLINLLFWQFTWHREEYDRLRKEGKSCGEALGSVKEILADKQVEEWERQEEEYKIYDHEWYEALAPYGGQLVIYIYNARQLVYLTPLIERLEEPVLLLSEYEIPDETELPDFVTAITLEFTKTVPLVNPFLKEWFPLIFQYANTFDILMRILQPKGLIFLEGCHYQQLLLATIGRDYGIPTLCIQQGWPSLMHTAFRRMPYRYYLMWGEGFRTLWEKHNPLPDFVPTGYMYQVEPRNETKKECVTFFLQGPFFLSDKRYLQEMIRLIGTVAAEFPARRFLVREHPEFRIGEEVRMEWEQIPNIEMVTDGKLAEVFARTRVGVAHYSSSLMEGVAHGAVPLVYDPTEGSRYSPDVEAEGLGMIAKTKEELTGGLSRILGNYEDFKQRIEKEQPLWFQATGEETLRNMVGFIKEKMPPVTLKEIYVVDTDTLTRERPVGVSGLLRCKNCEDFLEMCIDSCIDGLDELIAVYHDCTDRTPEILRQKAAQYPDKIRVFEYQPSVYPIDLDEEELEKAKLLPPDSIHTLAGYCNYALSKASYRYAVKIDADQVYFTDRLKHICDAYRSDKKVRFNVAECISYNLYRAYVDSFNRIEMRPFRWLERIALWTHASYASYLEKMIIRYKVPVSMSGINLFRKDREWMVGLGQEHPEPDSKEILPPFNGVRDTFFFEVSEDRIFRYMTETKLDGRHRGVEVMRCPNEILDVGFCWFHLRALMKEHEEGYRQSYRKHPERFIPLGTFVKLSYRNLQQRYKPFVAVRWAEPVFAYFFMTGKGRIPWKKLKEIE	failed
MNKKSLLAAVLFAAVMPVSFAQNANVKGAESLSGGSKPNFPEARTLIGEAMKNPETMNDAKTWFVAGQVEERLFTSENLKQTVNQEPDRAMMNDALLRILPFYLKADQLDNMPDQKGKVKPKFTKKIMESLKGNHLYYINAGGYYMEKKDYKKALEAFDQFMQIKELPMFAAVPEISAQDSNSMMVGFFSAVCAYQANDLDRTLEICNKIKDVPYRQNDVYQLIATVYQDKKDTEGYIRMLEEGVQKFPKEAYYLLNLINKYIETGRTEEAISSLERAIADDPQNVQLYDVMAKLYENTQDYDKAEEWLKKGLALDPDNASVCYDLGRVYYNRAADLKGADQVNAETEAKAKEYLQKALPLLEKAYSINPDESWYVLRNVYYNLKMNDKYKELTERHEGK	failed
MIESIQELLQKEAQAVLNIPVTDAYEKAVELIVEQIHRKKGKLVTSGMGKAGQIAMNIATTFCSTGIPSVFLHPSEAQHGDLGILQENDLLLLISNSGKTREIVELTQLAHNLNPGLKFIVITGNPDSPLASESDVCLSTGHPAEVCTLGMTPTTSTTVMTVIGDILVVQTMKRTEFTIEEYSKRHHGGYLGEKSRKLCVK	not failed
MATRMTTIRRQTKMAIGQRIKYFRNRIGMTQKQLGEQLGFKGKTSDVRMAQYESEARVPKIDLVKQMSQIFDINTHALTVPDIDTHIGLMHTLFALEDMYGLKVKNVDGQPHLWLDSSISAPSSSVDEMFRAWMEQADKLENGEISKEEYDEWRYKYPELDTYQKRAKVPSQELSDYLVKELTKKEK	failed
MIGLSKSRGALSMENQKMPEYETIRAAVAGEKWAVEKVVDCYKDEIDRLSTVAVRQPDGSTKQEINEDMRQSITKKLIEALPQFPLEEMEKGNVR	failed
MIRKLNKKDQEILKTLGSIWLNSNIATHNFINEEYWVNNYDNVIESFKTAEIIVYEKNTEIIGFCGLIDNYIAGMFIKKSSRNQ	failed
MSISDNSRDQLGELPAGRPLQSDFDNDLDYPRLGSVTFRRGTLTENQQTMWDEKWPELGRVLEDELIDVDAWFGREGAKTIVEIGSGTGTSTAAMAPLEADTNIVAVELYKPGLAKLMGSVVRGEIDNVRMVRGDGIEVLNRMFADGSLDGIRVYFPDPWPKARHNKRRIIQSGPLNLFAKKLKPGGVLHVATDHADYAEWINELVEVEPLLEYKGWPWEECPQLTDRQVITKFEGKGLEKDHVINEYLWQKVQN	failed
MLGKSQKDDHKTTFNKHKKTFSIIVAIKDESKQVIESLVENLKRINYERYEVIIVSDDDESKFREYLEIKFPENFRLIRRESNSGGKAGALNFASRISKGDYLVFMDADARVNEDFLQRLNNKDYVACSLKIIIYDTSTSIQSYYAEFTEKVMDMMFKGRSKLGLPIFPNGSAFSIRRDTLLSIGGWKENAIAEDLELGIRMYLNDLKNLFYDDVVVFLKSPYTLMDLYNQIQRWSYGSSQLLKSSLKLLKKGIKGFEGLLYSQQWVIYPLFFTVLGVYGILTPVFNITQTYLLLLILIYGISVVFYSQVLNQKRVDIKILKTILDASITGYLKGLFGLKYKWRVTPKILDKGGRLIEDNNIPLISIPFYLISFFDASMGFVLSSIVILLVALIESF	failed
MAQYQALYRQWRPRTFAEVVGQEHITRTLRNALRTGRLVHAYLFCGPRGTGKTSTAKILARAINCLAPREGEPCNECANCRRILAGNSLDVLEMDAASNRGIDEIRNLIEKIPLGPVEGRYKVYIIDEVHMLTQEAFNALLKTLEEPPAHAVFILATTEPRKVLPTILSRCQRFDFHPLTVQAIAGRLQEVAAANGVEIEPGALSLLSRKAAGGLRDALSLLDQILASGTRGPVTAGQVAVTLGTARLDTLLALTDALATGDGAGVLNLVDKALASGIEPRRLLEDLLDHTRNLLLLKVDPGAGSLTGLLPEEVEQVAAQARQFDHHRLLDLMERLQQGGAALRRSNQPRVILEMTLAGFLVAPGPSLEGLARRVAELEARLAALEGSAPSRTREKVATRNQGEGGRPPVAPGSRADAGGQERGNSGPLEAPGAGSPAGRARVINRSREFPQAAGRDRAGLAGPETATGLEPGSPASPGLELAVVQEHWPEVLAAARRESIQLQAFLREGEPVAIDGDTLTLAVKADFHRGMLEQPGNRQKVEKALAAVFGRPLKVVITSGKPSPPGDTGDTLTRLVNFFGADKVEIKD	failed
MNRTAMRASQKDFENSMNQVKLLKKDPGNEVKLKLYALYKQATEGPCNMPKPGVFDLINKAKWDAWNALGSLPKEAARQNYVDLVSSLSPSLESSSQVEPGTD	not failed
MLPKIIDLFSGCGGLALGFEKAGFDIVAGIELMPEACKTISYNLSWRYGKKETHICGDITEIEASVFKNSFGDEGCIVIGGPPCQAYSMAGRGKLRSLGEDRVNIKDARGYLYQDFLRFVFELEARAVVMENVPESTNFGGKNIPEIVCTELTKKGYKAYWTILNSADYGVPQVRERVFVVAIKGDEGKEIKLPNPTHRNEVDVLTQHQKRFEGYKQCQFFVEPNGTTDELKPWVTVGDAFSDLPEVFPTADSKYKLVSLNIEYPYKTEAQNEYQELMRTWYGKEGFGVSANAFRRNTRDFPIFERMQQGDNYIAATKIAEELFYEEAKLFGYEKDSEEYISLYNKMVPQYDKDKFENKWKRLDETKPSHTLVAHLAKDTYSHIHPIEPRGITVREAARLQSFPDDFFFDCSMGDAFKQIGNAVPPLLAYGVARTVLNTFEEE	failed
MTDQIREHLVSMLVHNKPGVMRKVANLFARRGFNISSITVGESETPGLSRLVIMVKGDDKTIEQIEKQAYKLVEVVKVTPIDPLPENRVEREMALIKVRFDEDKQEIFQLVEIFRGKIIDVSREGAIIEITGARSKVEAFINLLPQKQVEEIARTGIVAMNRWNVKEGEGF	not failed
MTPPEIDFFPDFIADPHRLFNHLKDSVLWDERMRARKTASFGAPYDYSQITYPAVPMPEALEQLCGPIEQLLGFRPNNCLLNCYPDGHSSMGFHSDANEQLVTGTGVVIVSLGHARAMVFRHKESGATFDYSLASGSLLHMSDELQKHWLHAIPKAPDAGERISLSFRQLKTGLEHHHHHH	not failed
MQWQESLPWTPEARQKLKNIPYFARVQARQRIEQLARQADLDEVTVDLVEQARLEFGQ	failed
MSEPLLHLTERSLWDAARDRGTYEMATRGRTLQEEGFIHCSLRHQLPGVAALLYGSRAGSDELVVLVVDAERLAAPVRYEAVGPGGEEFPHVYGPIPVSAVVDVEVWTGGEAASALEHHHHHH	not failed
AEPVLGDDGLYQLDWYLQSFLDLKEDLEGATAKGKRFAILWGLKGCPYCKKLHDVHMRDPAIESYIRDNFEIVHLNHIGAREVTDFDGSKLSEKAFAQAYGIRFTPSLQFFPESADGLAAKKPQDREVARMPGLLEPPEFLAMFKYVREKGYQSM	failed
MLNIEIYEEAMCCSTGVCGPEPDETLIKTNQINEYLKQNQIEVQRYNMNNNPNEFIQNKEVIRLIQEKGDEVLPITFIEGNIAKTGAYITQEEADEIITVNQMRNGGCCGGDGCC	not failed
MASTTRPAPTVGFDLDMTLIDSRPGIRACYVELSARTGTYVDADLAVTRLGPPLAEELANWFPAEEIEAVADLYREIYPAYAIEPTLALPGAREAVTAVRGAGGRAVVVTAKYEPNAKLHLAHLGIEPDAVIGGLWAEQKAVALREHDADVYVGDHVGDVRGARAAGARSVAVASGPCDAGELRAAGADVVLADLTAFPEWLAAYRDGEGDAEGLDAARA	failed
DGSFRRWSLRQVPEVQGAFMAMDVNSGRVLAMQGGFSYQYSVFNRATQATRQPGSSFKPFVYAAALDSGFTPATIVIDAPIEVQTAQGLWTPKNASGKYYGPTPLRTGVEQSRNLMTVRIAQEIGMDTVASYAERFGVYDRMGQFLANALGAEETTLFKMVAAYAMFANGGERVQPTLVDRVQDRFGRTIYRHDQRICDDCAQPLLPEGRAPHITSKRERVMDAITAYQLTSMMEGVIKRGTGRGINLPVPVAGKTGTTNDAKDVWFIGYTSNIVAGCYIGYDQPRSMGSASGGGFCGPVFQSFMTKAVKKYGGSEF	failed
MHLLQAVSYRYLILAVIGLPEKYRKPQALACHHRRTAMNRLSAFALAAAIGIAAAPVAQAGELWRATGLEQPESALFDAANNRIIVSNIVGNPGEADGNGYLSVLSLDGKTITQHWTDGMDAPKGMAISGGKLYVADITKVRVVDLASGKLIASIVVPNAVFLNDMTSDHTGKVYVSDMLADTIYRIDGDRPELFVRDALLASPNGVFADGDRLIVASWGKGIKPDFSTAEPGGLLAVDLASKAVSPLPGAQKFADLDGVIAIGDTIYATAYMTGTLYRYKAGGAPEAVAHFKPGSADIGTDGKSILYVPLMNEGEVAALKLD	failed
MSSSTALAPSTAPNIIQGGMGIGVSSWRLARHVARRGEIGIVSGTGIDSVVVRELQEGDPHDRRQMLADYPDEEIADHLVERFYRPDGLPADEPYDLLNMHPFEPSVRSQRILAAATYTEVRLAAAGHEGMIGMNLLAKLKRYTLPCIYGALLSDIDIVSIGAGIPLEEARQIPKLAAGEPAALRLDVDTSQAPDADDSYAYRFDPADVLDAPPTLDRPLFLPIISSDALARIMDAKLPDRRVDGWVVEGPVAGGHNAPPRNKNYADDGTPLYDERDEADLEAIRSLGKPFYLAGGHGSPEGLRAAHEAGAAGIQVGSLFSLTDESGYPPSTTRRLIRGLHTGEIEVSTEGRVSSTGFPFKVLTADGTLADAEVYERRARICDLGYLREPYLDEEGRLMGRCPAEPVKTYVSRGGAPEETEGRACLCNALMANIGLGQQRGARAEPPLFTGGDALEDLPLGSAEDPQYDADDVLNYLYQDVRPPRVSSPLRRPQPAD	failed
